Tests used:
T-cells = test: Removal of microRNA binding sites from an RDE, expression from constructs; format: cell-based; details: MIR186 micro-RNA sites removed from the 3′-UTR of IL-2
Description: The AU-rich element from the 3′-UTR of IL-2 has mir-181 and mir 186 microRNA binding sites. Different combinations of the microRNA sites were removed from the 3′-UTR of IL-2. When the MIR186 micro-RNA sites were removed from the 3′-UTR of IL-2 the dynamic range of expression from constructs with this UTR increased 50 fold. The modified IL-2, 3′-UTR replaces CTT in the sequence with GAA and is shown below (the new GAA is underlined in the sequence):
Different combinations of the micro-RNA sites were removed from the 3′UTR of IFNg and tested for increased expression. When the mir125 micro-RNA sites were removed from the 3′-UTR of IFN-γ the expression rate from constructs with this UTR is increased.
Expression of GFP in T-cells, transfected with the RDE-GFP plus the microRNA sites, is compared to expression of GFP in T-cells with the RDE-GFP in which the microRNA sites have been removed, following activation with CD3/CD28 beads for 24 hours. The removal of the microRNA sites increased expression of the GFP by a factor of between 2-5 after 24 hours, relative to the cells with microRNA sites.

CD4+ T-cells = test: Luciferase-RDE bioluminescence in anti-CD19 CAR T-cells, resting vs Raji co-culture; format: cell-based; details: for increase in bioluminescence with CAR stimulation: Raji co-culture 24 h vs resting
Description: Combinations of these inserts/cassettes shown in FIG. 3 were placed in the similar lenti virus constructs. The anti-CD19 CAR cassette and the insert with the luciferase-RDE are transcribed in opposite directions, and the control regions for each are located in between the two insert/cassettes. The control region for the Luciferase-RDE insert and Luciferase-3′-UTR were either a MinP promoter or an NFAT promoter. The control region of the anti-CD19 CAR cassette was the MND promoter, and CD4+ T-cells were transduced with the bicistronic construct.
The transduced T cells were allowed to return to resting state, and then were tested after stimulation as follows. For the ‘no stimulation’ set, transduced T-cells were incubated for 24 h alone in medium. For the ‘Raji co-culture’ set CD19+ Raji B cells were incubated with the transduced T cells for 24 h. At 24 h, the T cells were stained for CD25 and CD69, which are activation markers, and subject to flow cytometry to measure these markers and luciferase expression in the T cells.

B1: RDE3: 3′-UTR of IL-2 modified to remove the mir186 sites (SEQ ID NO: 22) (nucleic acid, listed as Homo sapiens)
DNA: TAATTAAGTGCTTCCCACTTAAAACATATCAGGCCTTCTATTTATTTAAATATTTAAATTTTATATTTATTGTTGAATGTATGGTTTGCTACCTATTGTAACTATTATTCTTAATCTTAAAACTATAAATATGGATCTTTTATGATTGAATTTGTAAGCCCTAGGGGCTCTAAAATGGTTTCACTTATTTATCCCAAAATATTTATTATTATGTTGAATGTTAAATATAGTATCTATGTAGATTGGTTAGTAAAACTATTTAATAAATTTGATAAATATAAA
- increase of dynamic range of expression (T-cells): 50 fold
- increase in bioluminescence with CAR stimulation (CD4+ T-cells; MinP promoter): 1.4 fold
- increase in bioluminescence with CAR stimulation (CD4+ T-cells; NFAT promoter): 1.3 fold
- amount of bioluminescence, rank among RDE constructs (CD4+ T-cells; with either promoter): highest amount of bioluminescence
